# Earlier results as cited in patent publication US10709784B2, “Metal chelating compositions and methods for controlling the growth or activities of a living cell or organism” (CHELATION PARTNERS INCORPORATED, priority 2011, dated 2020).
# B1: lactoferrin: iron binding defence protein, molecular weight 80 kDa/mole (protein, UniProt P02788 20-710, looked up)
# Lactotransferrin: GRRRSVQWCAVSQPEATKCFQWQRNMRKVRGPPVSCIKRDSPIQCIQAIAENRADAVTLDGGFIYEAGLAPYKLRPVAAEVYGTERQPRTHYYAVAVVKKGGSFQLNELQGLKSCHTGLRRTAGWNVPIGTLRPFLNWTGPPEPIEAAVARFFSASCVPGADKGQFPNLCRLCAGTGENKCAFSSQEPYFSYSGAFKCLRDGAGDVAFIRESTVFEDLSDEAERDEYELLCPDNTRKPVDKFKDCHLARVPSHAVVARSVNGKEDAIWNLLRQAQEKFGKDKSPKFQLFGSPSGQKDLLFKDSAIGFSRVPPRIDSGLYLGSGYFTAIQNLRKSEEEVAARRARVVWCAVGEQELRKCNQWSGLSEGSVTCSSASTTEDCIALVLKGEADAMSLDGGYVYTAGKCGLVPVLAENYKSQQSSDPDPNCVDRPVEGYLAVAVVRRSDTSLTWNSVKGKKSCHTAVDRTAGWNIPMGLLFNQTGSCKFDEYFSQSCAPGSDPRSNLCALCIGDEQGENKCVPNSNERYYGYTGAFRCLAENAGDVAFVKDVTVLQNTDGNNNEAWAKDLKLADFALLCLDGKRKPVTEARSCHLAMAPNHAVVSRMDKVERLKQVLLHQQAKFGRNGSDCPDKFCLFQSETKNLLFNDNTECLARLHGKTTYEKYLGPQYVAGITNLKKCSTSPLLEACEFLRK
# Conditions: comparison value, molecular weight 80 kDa/mole
molecule,measurement,value
B1,Fe bound per mole,2 atoms of Fe/mole
